Measurements: patent US12497462
Substitutions are numbered along the chain they refer to.

B1: CD26-07H scFv (scFv, part only; not given: VL-VH linker and detection tag, V domains shown, not shown: another chain or arm of the molecule; small tags and cut ends)
VL: DIQMTQSPSSLSASVGDRVTITCKSNQNLLYSHGRTYLNWYQQKPGKAPKLLIFGTSHLYSGVPSRFSGSGSGTDFTLTISSLQPEDFATYYCYQGYHVPFTFGQGTKVEIK
VH: EVQLVESGGGLVQPGGSLRLSCKASGYTFARFGMYWVRQAPGKGLEWVAFIAPNHGYTFYADSVKGRFTISADTSKNTAYLQMNSLRAEDTAVYYCARGHWYHGYMDYWGQGTLVTVSS
B2: CD26-01F scFv (scFv, part only; not given: VL-VH linker and detection tag, V domains shown, not shown: another chain or arm of the molecule; small tags and cut ends)
VL: DIQMTQSPSSLSASVGDRVTITCRASQDVWGYVAWYQQKPGKAPKLLIFSSRSLYSGVPSRFSGSGSGTDFTLTISSLQPEDFATYYCQQYFNWPITFGQGTKVEIK
VH: EVQLVESGGGLVQPGGSLRLSCAASGFTISDYSIHWVRQAPGKGLEWVASIWPYGGFTSYADSVKGRFTISADTSKNTAYLQMNSLRAEDTAVYYCARFHSSSGDMDYWGQGTLVTVSS
B3: CD26-01G scFv (scFv, part only; not given: VL-VH linker and detection tag, V domains shown, not shown: another chain or arm of the molecule; small tags and cut ends)
VL: B2 VL with W30N, G31N, Y32S, S51P, R52T, S53G, N93D, W94F, I96L
VH: EVQLVESGGGLVQPGGSLRLSCAASGFTIGNYGIHWVRQAPGKGLEWVAWIGPSGGYTFYADSVKGRFTISADTSKNTAYLQMNSLRAEDTAVYYCARFDVHGFHGMDYWGQGTLVTVSS
B4: CD26-01D scFv (scFv, part only; not given: VL-VH linker and detection tag, V domains shown, not shown: another chain or arm of the molecule; small tags and cut ends)
VL: DIQMTQSPSSLSASVGDRVTITCRASQDVNSNVAWYQQKPGKAPKLLIFGSGGLYSGVPSRFSGSGSGTDFTLTISSLQPEDFATYYCQQYSSYPLTFGQGTKVETK
VH: B2 VH with S30N, Y32S, S33Y, S50W, S59Y, H100L, S101G, G104S, D105I
B5: CD26-12D scFv (scFv, part only; not given: VL-VH linker and detection tag, V domains shown, not shown: another chain or arm of the molecule; small tags and cut ends)
VL: B4 VL with N30Y, N32W, F49Y, S51P, G53S, S92Y, S93N, T106I
VH: B2 VH with S30N, D31S, Y32S, S33Y, S50G, W52G, G55W, H100Y, S103Y, D105F
B6: CD26-10B scFv (scFv, part only; not given: VL-VH linker and detection tag, V domains shown, not shown: another chain or arm of the molecule; small tags and cut ends)
VL: B2 VL with S50A, R52G, S53A
VH: B2 VH
B7: CD26-03B scFv (scFv, part only; not given: VL-VH linker and detection tag, V domains shown, not shown: another chain or arm of the molecule; small tags and cut ends)
VL: B4 VL with N30Y, S31Y, N32F, F49S, G50W, S51P, G52T, S92F, L96I, T106I
VH: B2 VH with S30G, D31N, Y32S, S33Y, S50G, W52G, G55W, H100N, S101G, D105F
B8: CD26-04A scFv (scFv, part only; not given: VL-VH linker and detection tag, V domains shown, not shown: another chain or arm of the molecule; small tags and cut ends)
VL: B2 VL with W30S, Y32G, F49Y, S50G, S51T, R52S, S53G, Y91G, F92G, N93D
VH: B2 VH with T28A, S30N, D31N, H100F, S103Y
B9: CD26-04E scFv (scFv, part only; not given: VL-VH linker and detection tag, V domains shown, not shown: another chain or arm of the molecule; small tags and cut ends)
VL: DIQMTQSPSSLSASVGDRVTITCRASQDVNDGVAWYQQKPGKAPKLLIYWASYLYSGVPSRFSGSGSGTDFTLTISSLQPEDFATYYCQQSWNFPLTFGQGTKVEIK
VH: EVQLVESGGGLVQPGGSLRLSCAASGFTINDGFIHWVRQAPGKGLEWVAGIWPFGGSTSYADSVKGRFTISADTSKNTAYLQMNSLRAEDTAVYYCARFDVVDWGVMDYWGQGTLVTVSS
B10: CD26-03G scFv (scFv, part only; not given: VL-VH linker and detection tag, V domains shown, not shown: another chain or arm of the molecule; small tags and cut ends)
VL: DIQMTQSPSSLSASVGDRVTITCRASQDVSSSVAWYQQKPGKAPKLLISYPGWLYSGVPSRFSGSGSGTDFTLTISSLQPEDFATYYCQQFGDFPMTFGQGTKVEIK
VH: B3 VH with S54Y, D100N, V101N, H102L, G103L, F104W, H105N

Target: IgG Control
Assay: ELISA screen, Plate2, panel IgG

Row | Binder | ELISA OD450
1 | B1 | 0.047
2 | B2 | 0.045
3 | B3 | 0.047

Target: Human CD26-Fc fusion protein (human)
Assay: ELISA screen, Plate2, panel CD26

Human CD26-Fc fusion protein (human), sequence (chain, as listed by the source): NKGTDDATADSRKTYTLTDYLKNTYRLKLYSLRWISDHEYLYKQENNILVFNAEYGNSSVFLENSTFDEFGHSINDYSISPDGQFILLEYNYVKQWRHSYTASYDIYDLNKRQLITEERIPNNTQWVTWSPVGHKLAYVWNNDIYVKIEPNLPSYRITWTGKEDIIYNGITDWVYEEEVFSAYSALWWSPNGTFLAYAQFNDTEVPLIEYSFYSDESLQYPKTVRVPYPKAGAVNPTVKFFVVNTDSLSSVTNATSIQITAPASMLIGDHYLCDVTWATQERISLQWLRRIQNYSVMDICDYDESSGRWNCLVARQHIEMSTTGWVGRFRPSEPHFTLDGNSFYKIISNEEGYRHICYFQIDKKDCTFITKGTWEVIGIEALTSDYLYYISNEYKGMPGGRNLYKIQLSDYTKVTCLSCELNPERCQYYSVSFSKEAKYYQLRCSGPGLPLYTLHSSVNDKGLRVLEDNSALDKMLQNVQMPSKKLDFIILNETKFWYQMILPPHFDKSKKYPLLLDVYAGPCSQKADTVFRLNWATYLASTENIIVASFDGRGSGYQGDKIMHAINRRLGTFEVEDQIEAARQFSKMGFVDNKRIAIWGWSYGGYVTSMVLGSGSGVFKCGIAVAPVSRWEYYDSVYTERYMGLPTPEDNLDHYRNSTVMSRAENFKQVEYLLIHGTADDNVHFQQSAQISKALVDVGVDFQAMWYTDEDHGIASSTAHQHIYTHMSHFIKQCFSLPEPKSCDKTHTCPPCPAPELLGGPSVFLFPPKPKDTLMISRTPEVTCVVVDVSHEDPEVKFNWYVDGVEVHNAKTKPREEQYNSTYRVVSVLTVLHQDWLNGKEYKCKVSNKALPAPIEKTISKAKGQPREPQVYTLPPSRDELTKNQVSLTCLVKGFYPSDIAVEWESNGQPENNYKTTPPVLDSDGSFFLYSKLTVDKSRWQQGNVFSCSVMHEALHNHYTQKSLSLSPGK

Row | Binder | ELISA OD450
4 | B1 | 2.3
5 | B2 | 1.29
6 | B3 | 2.5

Target: ProL/A-HRP
Assay: ELISA screen, Plate2, panel ProL/ProA-HRP

Row | Binder | ELISA OD450
7 | B1 | 2.73
8 | B2 | 2.71
9 | B3 | 2.74

Target: IgG Control
Assay: ELISA screen of scFv clones, plate panel 'IgG Control'

Row | Binder | ELISA OD450
10 | B4 | 0.05
11 | B5 | 0.051
12 | B6 | 0.046
13 | B7 | 0.045
14 | B8 | 0.069

Target: IgG Control
Assay: ELISA screen GH2 (HHJ), table P1-IgG, format IgG/scFv/Etag-HRP

Row | Binder | ELISA OD450
15 | B9 | 0.05
16 | B10 | 0.05

Target: ProL/A-HRP
Assay: ELISA screen GH2 (HHJ), table P1-PrLA, format PrI/scFv/PrA-HRP

Row | Binder | ELISA OD450
17 | B9 | 3.08
18 | B10 | 3.16

Target: Human CD26-Fc fusion protein (human)
Assay: ELISA screen GH2 (HHJ), table P1-CD26, format CD26/scFv/Etag-HRP

Row | Binder | ELISA OD450
19 | B9 | 3.06
20 | B10 | 3.08

Target: ProL/A-HRP
Assay: ELISA screen of scFv clones, plate panel 'ProL/A-HRP' (scFv quality check)

Row | Binder | ELISA OD450
21 | B4 | 3.13
22 | B5 | 3.05
23 | B6 | 3.03
24 | B7 | 3.14
25 | B8 | 3.11

Target: Human CD26-Fc fusion protein (human)
Assay: ELISA screen of scFv clones, plate panel 'CD26' (CD26-Fc fusion protein per paragraph 510)

Row | Binder | ELISA OD450
26 | B4 | 0.948
27 | B6 | 0.68
28 | B8 | 2.92
